Test results as given in the domain aggregation screens of Martell et al. (2025).

Assay: soluble fraction after stress (log2 fold change); higher = more stays soluble; pooled small domains, quantitative proteomics
Conditions: stress: 50 degC
Outline: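 Quantitative proteomics served as the high-throughput read-out for pooled custom libraries of small protein domains. Each was stressed at 50°C. Aggregation propensity is expressed as the base-two log fold change in soluble protein after stress. A higher value means a larger share of the protein remains in solution.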

| Sequence | soluble fraction (log2) |
| --- | --- |
| HMEISNWLEEIGLSRYTETLSEFPLEDLVEFTDDDFKELGVLTPHRKKLLAAIATLNNDASSN | -0.255 |
| HMEISTEVPLRGGTISEEALEALNRLPGVTASNIDGKSISVDVADNAELRVSDINQVLAVHSPDTRV | 0.209 |
| HMEITRDTVIQWLEAERRSQTWLSKQLGVSVQAVSNWLREKNPQTISASAQITIRALMEEDAAK | -0.42 |
| HMEIVQVIAQNIQDLLDKHKISVSELSGYLGISRQTLTNYLKTTSTIDSVQLVKIADFFNIPAEYLLKDH | -0.968 |
| HMEIVSTEEKIKRAAEQVFLLRGLEGARMQEIADVAGINKAMLHYYFRNKETLFDVILSEKL | -1.51 |
| HMEIYEEDRTKVVNDLMDQILNRQITMDAAATKFINIRNSLGTTITKEDEQNLEMLRGLIFDKT | 0.16 |
| HMEIYIDGNKYVGELRNGKPNGRGTITYTGDGSKYVGEWKNGKRYGRGKMAYTNGTTKEGVWKDDEFLYAT | 0.0597 |
| HMEKAKVPSVIGMTEANAKRTIRDAGFKVGRVTRVESEAYDKGKVIEQQYEAGSELEKKKPISIVVSKGKK | -0.162 |
| HMEKALEVKYQKMVELLGDQSTFYVDEVKKIFPEMKKSSLYWNMSKLVEGGYLRRIRNGVYAFNE | -0.48 |
| HMEKEKIKEALIGYFEAEPEEKFTVQELADKLKMNKAGQFNFVVQAVAQLEHDKVITLDDEGNFSLVRHE | -0.623 |
| HMEKERYDTGIGELNRVLGGGLVKGSLILISGDPGIGKSTLLLQTANNISKKYGKVLYVSGEESEEQIKIR | -0.319 |
| HMEKGWYKLGQDSYYVDDDGKIHKGWLELDGKKYYFDQEGKMVTGTVNIDGKDYTFNEKGELYVS | 0.183 |
| HMEKIELKTVIPENLKKKRLDFALSELFPEHSRSRIQSWIKEGSVMVNSKNYRQRDLVDAGDVVEINTEQK | 0.236 |
| HMEKIIGQIQINQRGNGYVIVPNVKDDIFVKRENLNSARQGDRVAVQLLSRPNQKPEGLVQEVLERGQ | 0.461 |
| HMEKILSYKALMNDAGKRIDQFLANNEKDISRTRIKSLILEGSLKLDNNIINDPSYKIKENDVFTLFIPEA | -0.429 |
| HMEKIRIQKYLSERGVMSRRAADSALAEGRIAVNGVTARPGDKIDPSSDTLTIDGRIVTTGTAP | 0.00802 |
| HMEKKEWVIYITGAVKKPGVYRIPEGARVYQALEAAGGFTPEADRDAVNLAAMLQDGAHIKFPAVGEEV | 0.117 |
| HMEKLNYSISNEEQGQRIDKYLSLMIEGKSRSFIQGLIDDKKVMANGKVIKSNYKLKNNDEITVEMPDPI | -0.155 |
| HMEKNILPDTSPEKQYEFATSFLKVGDYSTAERAFREFVINNSEHKLAGNAQYWYAETFRIRQ | -0.101 |
| HMEKSQIHLIHTRYVNPEQLVPILSMVIPAENIYVKSDSNLIIINGSSEMLREVESIVSKLDVPS | 0.0228 |
| HMEKSSALRAKEAFMALYHDGKFKPGTKIPSESNMAELLGVSRETWRKALALLRGDGVLYSKHGSGTYLLE | 0.11 |
| HMEKTKLPNLVDFTYRQAEALLQTHGLKVGKVERVPDVGQTVIKAKYKGKVISWGTELNKGEKIDLVIGKG | 0.189 |
| HMELADLPSAQIREILAYVYRAPLEKRRDPSIHWLLIAAHKLTLPLLDRLDPADARALGERYGADYP | 0.132 |
| HMELARLRPELDGNDIMRILGVPPGPVVGRAYTYLLELRINQGELGRERVTQLLLDWAAAEGISA | -2.02 |
| HMELDMTFGEKIQKLRKESGLSQEELSYQLGVSRQAISKWERDSGYPETEKIVRMSKIFDVTLDYLLNE | -0.458 |

| Sequence | soluble fraction (log2) |
| --- | --- |
| HMELEDTYTKNLDASLARLDEYQASKGLTDEQVDEVINSLIADAENIIMGVFTPELIDSKLKAMNYDQDV | 0.156 |
| HMELEFLTEKQKEALILAVNRGYYDVDSEVTLKRLADELGIARSTYGEHLKRAESEALKMVVSDLLRD | -0.382 |
| HMELEIPGELIEAVRRLRDERQRMRLAGELAARQIQMHPERYTEASIDPVQTWDELRARILALA | -0.248 |
| HMELLSGTVEKVLTSGVLVKLPGGAIGFIPNSEMGTPRGTNHGKMFPAGTPLQVMVVEVNQDRGRITLSR | -1.45 |
| HMELLTNPLTGREVEVLTLMALGQTNHEIARQLYLATGTVKAHTSSIYRKLDVANRTEAVARARQLGIL | -1.1 |
| HMELLTYREMDVLNLLDQRLTNKEIAHALGISTETVRQHTVNLFRKLNVDNRRQAIVVARSLGYIGTPT | -1.2 |
| HMELNESVLKALYEKFREMSGSKGFITEDEVIIQLEKENPDITPDQQAEIFKYLYDTPLQIY | -0.127 |
| HMELNFEGFYRFVRDELNVDLNAYKEKQLKRRIATVMKSSGALTLEDYSRLIANDEVIRNKFLDYITI | -1.08 |
| HMELPMGTQLPPERELAQQMQVSRAVVNGGLAELAQQGFLEVRPRQGTFVADYRRKGNLSTLIAIMEY | 0.0153 |
| HMELPPLQPGQPIDGRVEQQIRAGYYVVSVRGRGYEFQLPESARPGDLLRMVYLNDHPRLTFALLRIDNAN | -0.98 |
| HMELPVAVPHTELSPEALRGVVESFVLREGTDYGERDVPFEAKVAQVIRQLERGEARIMFDPVTQSVQIVT | 0.102 |
| HMELRSPMPGLIIEIPVSKGDIIKKDQSLIILEAMKMENVLTSPINGKIADIKVNVQDTVEKNNLLITFEN | -0.164 |
| HMELSESLENYLVVIYEAHLRNEIARIKDMTASLSVKHTSAIDAIKKLEDLGIVNYEKRGFVKLTQSGIEK | 0.0501 |
| HMELSPAELGERLKVARETANVTQDAGAKAAGIARTTLVAIEKGQRSARIDELQTLSRRYGVSVNSLLRR | -0.135 |
| HMELSSRQAMIVDIVRKYEPITSEQIADKLNLTRSALRPDLAVLTMIGILEARPRVGYFFTGK | 0.141 |
| HMELSTQERIQILLEILNQREIISFSQTLRKKEGKKGVVVTFLASLELAKDGYVTLVQNKSDQIYLRSN | -0.7 |
| HMELTDSLTENAKKLYSVLTTEPRHIDDLSEEAKLSSADTLAALTELELYSLVALSEGKHYYK | 0.00954 |
| HMELTKAELEVMQILWKLKKAFVGDILDRMVEPKPAYNTVSTVVRLLEKKGVVGHESFGKSHRYYPL | -3.22 |
| HMELTVPDFTNMSLEDAINLAEKRDVRLEVTDSVFVKRLGRGFIYSQNPVAGSKVKKGRRILITINAIN | -2.53 |
| HMEMDPKELGRQVLAKRKEKGWSQEQLGKMAEISRNYVSQIERGEADSISIKIINRLAIALGVSPSDLGE | 0.0486 |
| HMEMKHKNSQIFQAIKLKHMGFTPTQISEELRVSRTTINHWLTKAQLKDVKWEDIRENSADELVKLLFG | -0.229 |
| HMEMNPLDIQNKAAELAQQWLQLPVGERQKQMAAVRTSNPNLHAMAKQKMEEMRSQAESQGRQSLSQP | 0.0359 |
| HMEMTDKEEELMRIFWNHGPMFVREIVELYPEPRPHFNTLSTFVRNLEQKGFVSHEAVGGSFRYYAV | -1.26 |
| HMEMTEDEITKQFDAMEREAKKEIDTGADKRAFMYGVSRTAAGMAGKNPKYARFITDKAKEVIENIAKYK | 0.108 |
| HMENAEALLKKLSGVLSDYEYKMLMLYADGKTPRRIAQETGQSAKSVSNALFRARTKLKELYEDQ | -0.331 |

| Sequence | soluble fraction (log2) |
| --- | --- |
| HMENEIVMPVQINGKKRGDLTIARDADQASIQKAVLELDFVKAALNGGSPKKVIVVPQRIVNVV | 0.325 |
| HMENFKVFMKAVQEVSPVPVRFDEISSGAKGYYSNTEKEIVIQNGMSESQTMKTGIHEVTHAMLHDRDF | 0.113 |
| HMENFYGYEIINPEAKKFFITMGVNRYALEQWIKNKSEYGLIIVKSLYPFDPRLKLFLEKNRERIQNLIF | -0.566 |
| HMENKLIELTLSLDKSERLDKILTQELSHTRSVIQQWLKSGFVSVNGEIVKANYKAKDGDHVTIQIE | -0.198 |
| HMENKTGEVTVREDSALTLRQGPGTNYEKVGQAYRGDRVDVLEEQNGWYKVKTYDGKEAWASSSYISIV | 0.454 |
| HMENMETSDIVARYSNMPGGIIEAFHEIVDRHGFLSQEAIIEAARGFGISVAEAYGVATFYSMFS | -0.336 |
| HMENMRLILASNLRRIREERRLSLNKVSELTGVSKSMLGQIERGESNPTLQTVWKIANGLRVSLTDLTEVP | -0.0326 |
| HMENRILLSEDSLKHLAQDIPIDIIEKLSVLKDQIYHRYDDFNSIVQGLLGGENYLKYKDNILSFVEQ | 0.0624 |
| HMENSMDTDWDVSGVDPSQYRLLFSTLGAIAGVKDVGLNPDGLKIIHTPEALPAIKQAFDANNLKLKMRTN | 0.163 |
| HMENSPLTHREAEVMRLMSEGKSNRAISEHLVISEKTVKNHVSSILQKMSVDDRTQAVLQAIKNGWVD | 0.23 |
| HMENTGFKDKKGNYIFDGDIVKDILGNIMKVEFKHFKWQLIPLNKTAFNMPMVDWLDLETETLNAEIIGN | -2.13 |
| HMENTIESLLKAKGFNDIIVTVSDKQVDVVVSDKEIADNKRAQIEDVIKRKTGLEASAITITPA | 0.0688 |
| HMENVLFVNVLSMTVRELAEMMKIPVNKIIQDSFSKGIMMNPNQRLEYDNFAELAKKYGITVKI | -0.879 |
| HMENVMLRNFAIQATEAGVIKLLEDQRTFVWGSNNKKFMTVPFDEHPYSAMAAFFKTDEGLEIYKSIEKKF | -1.71 |
| HMENYQIETFVKFIEESTGEDGVAFEDLFQNFTSRPAVITMFLALLEALRRNSIRIFQKEEFSQILIYPK | 0.084 |
| HMENYTYKYATSANVNIREEPNTDSTILGKTLLNTEFQVVEDVDGWSKITTEAGYAYIKSEYLSDTE | -0.188 |
| HMEPDEQAVKALIAEIDKLSKEKLTLKHEKKLKELREIYDDFTEEEKKLVTNYDILVKMEKRMEVLKKQEG | 0.111 |
| HMEPDEYTVRQAFMKFDVGGEGRVPRDKLKALLETLGLELSAQQVRESEEQLDPEGTGFTSYGDFLMWWN | -1.12 |
| HMEPEVSNTYEKVLGMHHFSSTRSHQLHDLVRQANALELSLGEIESIAQSAKDGAQVISDIKHWMEPNRQ | 0.266 |
| HMEPEWVINTDGSNLNEILAIDEVDSRKTFSNDLQEVYRTFGIEAARQILVQEIDAVIESSGA | 0.199 |
| HMEPFEQLLDRITSQTGKEPEEVVARMNELITERFDGNIRPEAALVIVAKRDNIQFMDLLDQLKQALL | -0.516 |
| HMEPIAFDNMHNRGIKGTNDWTQYEITLPFSAEAKKIFVAGLLVGKGKAWFDKFEVFLDGKNITDVAQI | 0.124 |
| HMEPPPSYSALLKQISSGKVKELQLVPARREVIVTYPDGRSATVAILANDQQILRTAEAAGTPLLVK | 0.207 |
| HMEPQLVKSFDVQTELTYDQFLSKYPESHTLGRLLVQPEPIPFEPYKNIPGITPEKLLALHAKHLEAR | 0.0728 |
| HMEPQSRTAYRLIEAMIVTHELPPGSRISEASLSAKLGIGRTPIREALQRLSFEGTVKIVPRSGAFVSEI | -2.76 |
